Earlier results as cited in publication PMC8256087.

Target: FtsY (Escherichia coli) (UniProt P10121)
Sequence (P10121 2-497): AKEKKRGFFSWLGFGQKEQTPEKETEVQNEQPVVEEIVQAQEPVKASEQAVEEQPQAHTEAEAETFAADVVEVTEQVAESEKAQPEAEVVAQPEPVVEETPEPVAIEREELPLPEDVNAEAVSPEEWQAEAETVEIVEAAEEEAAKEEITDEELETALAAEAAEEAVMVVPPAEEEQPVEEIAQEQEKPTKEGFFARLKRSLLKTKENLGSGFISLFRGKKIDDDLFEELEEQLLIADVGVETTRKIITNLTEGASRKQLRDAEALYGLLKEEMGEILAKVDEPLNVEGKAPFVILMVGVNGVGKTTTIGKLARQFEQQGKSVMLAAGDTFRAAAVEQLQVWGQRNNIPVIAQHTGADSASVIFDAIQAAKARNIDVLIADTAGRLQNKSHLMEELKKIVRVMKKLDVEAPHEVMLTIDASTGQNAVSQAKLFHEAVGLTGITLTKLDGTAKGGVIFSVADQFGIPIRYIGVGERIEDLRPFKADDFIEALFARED

Chain of SecYEG translocon (P0AGA2 whole entry): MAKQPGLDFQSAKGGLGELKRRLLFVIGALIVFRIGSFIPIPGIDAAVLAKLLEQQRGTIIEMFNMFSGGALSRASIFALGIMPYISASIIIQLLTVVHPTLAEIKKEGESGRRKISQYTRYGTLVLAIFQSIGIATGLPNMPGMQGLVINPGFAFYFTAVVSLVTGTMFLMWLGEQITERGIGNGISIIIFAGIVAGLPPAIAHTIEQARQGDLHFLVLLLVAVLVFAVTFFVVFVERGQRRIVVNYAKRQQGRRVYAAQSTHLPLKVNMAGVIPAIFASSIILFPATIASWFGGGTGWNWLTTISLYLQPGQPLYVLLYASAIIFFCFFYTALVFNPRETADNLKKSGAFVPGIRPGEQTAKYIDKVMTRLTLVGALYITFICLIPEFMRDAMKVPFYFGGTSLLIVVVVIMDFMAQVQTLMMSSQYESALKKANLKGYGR
Chain of SecYEG translocon (P0AG96 whole entry, further chain): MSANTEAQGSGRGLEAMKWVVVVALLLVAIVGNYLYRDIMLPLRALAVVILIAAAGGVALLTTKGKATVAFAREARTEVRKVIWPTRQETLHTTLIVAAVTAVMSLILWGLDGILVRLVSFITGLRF
Chain of SecYEG translocon (P0AG99 whole entry, further chain): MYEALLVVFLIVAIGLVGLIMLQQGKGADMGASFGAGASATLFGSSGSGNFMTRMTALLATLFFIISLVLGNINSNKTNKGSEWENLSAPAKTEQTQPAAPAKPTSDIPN

Kd: 0.2 µM
Substance: SecYEG translocon (from UniProt P0AGA2)
